Measurements published in patent publication EP2954934A1 (3B Pharmaceuticals GmbH, dated 2015).

How the values were obtained:
[1] = target: NTR1 on HT29 or NTR1-expressing HEK293 cells (UniProt P30989); assay: cell-based or functional assay
[2] = target: human neurotensin receptor 1 (NTR1) prepared from CHO cells recombinantly expressing the human receptor (human) (UniProt P30989); assay: radioligand displacement, 125I-(Tyr3-neurotensin) on human NTR1 from CHO cells
human neurotensin receptor 1 (NTR1) prepared from CHO cells recombinantly expressing the human receptor (human), sequence (P30989 whole entry): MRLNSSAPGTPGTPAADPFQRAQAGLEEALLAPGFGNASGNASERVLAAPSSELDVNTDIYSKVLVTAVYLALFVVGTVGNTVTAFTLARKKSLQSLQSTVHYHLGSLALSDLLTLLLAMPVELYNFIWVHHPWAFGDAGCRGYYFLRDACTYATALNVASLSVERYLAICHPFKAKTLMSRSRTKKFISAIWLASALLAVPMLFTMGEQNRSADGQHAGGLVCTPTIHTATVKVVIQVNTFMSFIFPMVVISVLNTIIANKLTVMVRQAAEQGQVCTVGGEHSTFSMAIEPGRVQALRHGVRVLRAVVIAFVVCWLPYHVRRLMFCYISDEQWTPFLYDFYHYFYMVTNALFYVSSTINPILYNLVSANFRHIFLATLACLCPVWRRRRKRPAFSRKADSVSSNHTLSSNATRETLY

NTR1 on HT29 or NTR1-expressing HEK293 cells, sequence (P30989 whole entry): as above

Substance: 1206-Glutar-Ttds3-Asn-Ala-Val-Pro-Asn-Leu-Arg-Gly-Asp-Leu-Gln-Val-Leu-Ala-Gln-Lys-Val-Ala-Arg-Thr-GA (peptide)
- Agonistic Effect EC50 [nM] (functional Ca2+ mobilisation assay) [1]: > 50000 nM
- Antagonistic Effect IC50 [nM] (functional Ca2+ mobilisation assay) [1]: 38 nM
- IC50 [2]: 0.0099 µM

Substance: 1206-Glutar-Ttds-Lys(1206-Glutar-Ttds)-Ttds-Asn-Ala-Val-Pro-Asn-Leu-Arg-Gly-Asp-Leu-Gln-Val-Leu-Ala- (peptide)
- Agonistic Effect EC50 [nM] (functional Ca2+ mobilisation assay) [1]: > 50000 nM
- Antagonistic Effect IC50 [nM] (functional Ca2+ mobilisation assay) [1]: 12 nM
- IC50 [2]: 0.0075 µM

Substance: 1206-Glutar-Ttds-Lys(DOTA)-Ttds-GABA-Asn-Ala-Val-Pro-Asn-Leu-Arg-Gly-Asp-Leu-Gln-Val-Leu-Ala-Gln-Lys (peptide)
- Agonistic Effect EC50 [nM] (functional Ca2+ mobilisation assay) [1]: > 50000 nM
- Antagonistic Effect IC50 [nM] (functional Ca2+ mobilisation assay) [1]: 18 nM
- IC50 [2]: 0.01 µM
